{"source": "patent US11021531", "about": "(CENTIVAX, dated 2021)", "binders": {"B1": {"name": "COVID19_R01_D02 (scFv, V domains shown)", "VH": "EVQLVESGGGLVQPGGSLRLSCAASGFTFDDYAMHWVRQAPGKGLEWVAIIYEGGSPHYADSVKGRFTISRDNSKNTLYLQMNSLRAEDTAVYYCARDRSGYLDYWGQGTLVTVSS", "VL": "EIVMTQSPATLSVSPGERATLSCRASQSVSNNLAWYQQKPGQAPRLLIYDASTRATGIPARFSGSGSGTEFTLTISSLQSEDFAVYYCQQYNNWPPTFGGGTKVEIKR"}, "B2": {"name": "COVID19_P04_B10 (scFv, V domains shown)", "VH": "EVQLVESGGGLVQPGGSLRLSCAASGFRFSDAAIHWVRQAPGKGLEWVSAISGSGGSTYYADSVKGRFTISRDNSKNTLYLQMNSLRAEDTAVYYCARDRSYGIDYWGQGTLVTVSS", "VL": "not shown"}, "B3": {"name": "COVID19_R01_C08 (scFv, V domains shown)", "VH": "EVQLVESGGGLVQPGGSLRLSCAASGFSFSSYGMSWVRQAPGKGLEWVSAMNRDGSYIYYADSVKGRFTISRDNSKNTLYLQMNSLRAEDTAVYYCARDRSYYVGYWGQGTLVTVSS", "VL": "not shown", "notes": "also called COVID19_R01_CO8"}, "B4": {"name": "COVID19_P04_E10 (scFv, V domains shown)", "VH": "B3 VH", "VL": "B1 VL with S30R, N31S, D50G, Y91R"}, "B5": {"name": "COVID19_R01_B01 (scFv, V domains shown)", "VH": "EVQLVESGGGLVQPGGSLRLSCAASGFTFASHAMSWVRQAPGKGLEWVSGISSDGSITTYADSVKGRFTISRDNSKNTLYLQMNSLRAEDTAVYYCARDRGWYLDYWGQGTLVTVSS", "VL": "not shown"}, "B6": {"name": "COVID19_R01_A04 (scFv, V domains shown)", "VH": "EVQLVESGGGLVQPGGSLRLSCAASGFTFSDHYMSWVRQAPGKGLEWVSAISTSGDSTFYADSVKGRFTISRDNSKNTLYLQMNNLRAEDTAVYYCARDRSYYLDYWGQGTLVTVSS", "VL": "EIVMTQSPATLSVSPGERATLSCRASQSVRSNLAWYQQKPGQAPRLLIYGASTRATGIPARFSGSGSGTEFTLTISSLQSEDFAVYYCQQFGTSPPGLSFGGGTKVEIKR"}, "B7": {"name": "COVID19_P04_B03 (scFv, V domains shown)", "VH": "B6 VH with D31N, T53G, D56G, F59Y, N85S", "VL": "EIVMTQSPATLSVSPGERATLSCRASQSIGTYLSWYQQKPGQAPRLLIYGASTRATGIPARFSGSGSGTEFTLTISSLQSEDFAVYYCQQSLSLPVTFGGGTKVEIKR"}, "B8": {"name": "COVID19_P04_B09 (scFv, V domains shown)", "VH": "EVQLVESGGGLVQPGGSLRLSCAASGFTFSNSDMNWVRQAPGKGLEWVSAISGTGDTTEYADSVKGRFTISRDNSKNTLYLQMNSLRAEDTAVYYCARDRSLMLDYWGQGTLVTVSS", "VL": "B1 VL with S30R, N31S, D50G, Y91R"}, "B9": {"name": "COVID19_P04_D08 (scFv, V domains shown)", "VH": "EVQLVESGGGLVQPGGSLRLSCAASGFTFTNYAMTWVRQAPGKGLEWVSTMSNIGGDTYYADSVKGRFTISRDNSKNTLYLQMNSLRAEDTAVYYCARDRRVYLDYWGQGTLVTVSS", "VL": "DIQMTQSPSSLSASVGDRVTITCRASQSISSYLNWYQQKPGKAPKLLIYAASSLQSGVPSRFSGSGSGTEFTLTISSLQSEDFAVYYCQQYGSSPLTFGGGTKVEIKR"}, "B10": {"name": "COVID19_P04_G03 (scFv, V domains shown)", "VH": "EVQLVESGGGLVQPGGSLRLSCAASGFTVSSNYMNWVRQAPGKGLEWVSVVYPGGSTYYADSVKGRFTISRDNSKNTLYLQMNSLRAEDTAVYYCARDRSYYLDYWGQGTLVTVSS", "VL": "not shown"}, "B11": {"name": "COVID19_P04_G05 (scFv, V domains shown)", "VH": "B10 VH with F27L, T28S, S30T, N35S, V51I, Y58F", "VL": "not shown"}, "B12": {"name": "COVID19_R01_B10 (scFv, V domains shown)", "VH": "B10 VH with N35S, V51I, Y58F", "VL": "EIVMTQSPATLSVSPGERATLSCRASQSVSSSYLAWYQQKPGQAPRLLIYGASTRATGIPARFSGSGSGTEFTLTISSLQSEDFAVYYCQQASSTPLTFGGGTKVEIKR"}}, "note": "Changes are numbered by the printed parent chain."}
{"target": "SARS-Cov-2 Receptor Binding Domain (RBD) protein (SARS-CoV-2, UniProt P0DTC2 319-541)", "test": "SPR (Carterra LSA), scFv captured via anti-V5, RBD as analyte, 1:1 fit", "units": {"Kd": "nM", "koff": "s⁻¹", "kon": "M⁻¹ s⁻¹"}}
{"binder": "B1", "Kd": 2.8, "koff": 0.00058, "kon": 210000}
{"binder": "B2", "Kd": 2.5, "koff": 0.0005, "kon": 200000}
{"binder": "B3", "Kd": 49.5, "koff": 0.00379, "kon": 76600}
{"binder": "B4", "Kd": 4.4, "koff": 0.00053, "kon": 120000}
{"binder": "B5", "Kd": 12.5, "koff": 0.00055, "kon": 44000}
{"binder": "B6", "Kd": 10.9, "koff": 0.012, "kon": "1.1e+06"}
{"binder": "B7", "Kd": 19.7, "koff": 0.0141, "kon": 716000}
{"binder": "B8", "Kd": 1.4, "koff": 0.00032, "kon": 230000}
{"binder": "B9", "Kd": 40.7, "koff": 0.0113, "kon": 279000}
{"binder": "B10", "Kd": 7.1, "koff": 0.00045, "kon": 63000}
{"binder": "B11", "Kd": 0.72, "koff": "5.7e-05", "kon": 79000}
{"binder": "B12", "Kd": 30.4, "koff": 0.00294, "kon": 96900}
{"target": "SARS-CoV-2 spike protein (on pseudovirus / virus in the neutralisation assays) (SARS-CoV-2, UniProt P0DTC2 14-1273)", "test": "cell-based or functional assay", "units": {"IC50 [µg/mL] plaque": "µg/mL", "IC50 [µg/mL] pseudotyped lenti neutralization": "µg/mL"}}
{"binder": "B1", "IC50 [µg/mL] plaque": "< 3", "IC50 [µg/mL] pseudotyped lenti neutralization": 0.62}
{"target": "MERS Receptor Binding Domain (RBD) protein (MERS coronavirus, UniProt K9N5Q8 367-606)", "test": "SPR (Carterra LSA), scFv captured via anti-V5, RBD as analyte"}
{"binder": "B2", "binding result": "no binding (tested: 300 nM (highest analyte concentration))"}
{"binder": "B4", "binding result": "no binding (tested: 300 nM (highest analyte concentration))"}
{"binder": "B7", "binding result": "no binding (tested: 300 nM (highest analyte concentration))"}
{"binder": "B8", "binding result": "no binding (tested: 300 nM (highest analyte concentration))"}
{"binder": "B9", "binding result": "no binding (tested: 300 nM (highest analyte concentration))"}
{"binder": "B10", "binding result": "no binding (tested: 300 nM (highest analyte concentration))"}
{"binder": "B11", "binding result": "no binding (tested: 300 nM (highest analyte concentration))"}
{"target": "SARS-CoV-1 Receptor Binding Domain (RBD) protein (SARS-CoV-1, UniProt P59594 306-527)", "test": "SPR (Carterra LSA), scFv captured via anti-V5, RBD as analyte"}
{"binder": "B2", "binding result": "no binding (tested: 300 nM (highest analyte concentration))"}
{"binder": "B4", "binding result": "no binding (tested: 300 nM (highest analyte concentration))"}
{"binder": "B7", "binding result": "no binding (tested: 300 nM (highest analyte concentration))"}
{"binder": "B8", "binding result": "no binding (tested: 300 nM (highest analyte concentration))"}
{"binder": "B9", "binding result": "no binding (tested: 300 nM (highest analyte concentration))"}
{"binder": "B10", "binding result": "no binding (tested: 300 nM (highest analyte concentration))"}
{"binder": "B11", "binding result": "no binding (tested: 300 nM (highest analyte concentration))"}
